Consider two molecules from US20240010687A1 (University of Washington, published 2024).

Test [1] has as its target T1, A113_c2arms9_Axle (D3-C5).
T1 construct: De novo designed D3 homohexameric axle; For biolayer interferometry it was Avi-tagged and biotinylated; also called D3 axle; axle of the D3-C5 rotor
T1 chain: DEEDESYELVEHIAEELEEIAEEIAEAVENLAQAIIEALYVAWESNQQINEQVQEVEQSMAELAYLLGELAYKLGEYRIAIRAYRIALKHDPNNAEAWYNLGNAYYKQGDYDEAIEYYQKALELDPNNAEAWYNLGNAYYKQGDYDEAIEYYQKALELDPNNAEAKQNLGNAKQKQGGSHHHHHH
In words: EM, biolayer interferometry, SEC and SAXS of the assembled rotor. The protocol:
FIG. 13. Biolayer interferometry assays measuring in vitro assembly of ring and axle parts into a full rotary system. For each 6 designs, the equilibrium binding curves from biolayer interferometry binding assays is shown on the left and the corresponding Biolayer interferometry kinetic binding traces shown on the right. Biotinylated axles were immobilized on the tip and the binding in a solution of fre rings was measured. For both D3-C5 and D3-C3, a fresh ring solution was prepared by buffer exchange from citrate buffer to TBS with reducing agent, and immediately used for binding assays.
Protein samples were purified by SEC in 25 mM Tris pH 8.0, 25 mM NaCl and 1% glycerol; elution fractions corresponding to the protein were further concentrated using 3K protein concentrators (Millipore Sigma) and the flow-through was used as blank for buffer subtraction. SAXS Scattering measurements were performed at the SIBYLS 12.3.1 beamline at the Advanced Light Source. […] Collected data were processed using the SAXS FrameSlice™ online server and analysed using the ScÅtter software package(23). […]
Background: Biolayer interferometry detects binding as a change in optical thickness at a sensor tip.

In another test the target is T2, A15.5R82_Axle (C3-C3).
T2 construct: C3 homotrimeric axle with DHR arms; also called C3 axle
T2 chain: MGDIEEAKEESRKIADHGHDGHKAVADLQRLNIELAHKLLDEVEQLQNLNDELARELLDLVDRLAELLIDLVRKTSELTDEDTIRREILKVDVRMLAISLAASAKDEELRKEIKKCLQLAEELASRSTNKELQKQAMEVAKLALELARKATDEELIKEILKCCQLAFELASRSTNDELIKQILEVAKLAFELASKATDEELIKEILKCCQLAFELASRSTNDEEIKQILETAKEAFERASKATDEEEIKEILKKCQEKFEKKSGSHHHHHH
In words: single particle cryoEM of the assembled rotor (6.5 Å). The protocol: Multiple datasets were collected for each design and combined early on during processing. See table 1 and processing flowcharts for details. Briefly, images were manually curated to remove poor quality acquisitions such as bad ice or large regions of carbon. Dose-weighting and image alignment of all 50 frames was carried out using MotionCor2 (56) with 5×5 patch or with cryosparc v2 patch alignment tool with default parameters. Super-resolution krios data was binned 2X during alignment. Initial CTF parameters were estimated using CTFfind4 (57). Particle picking was done with a gaussian blob picker and in some cases followed by a template picker. Particles were extensively classified in 2D to remove junk particles and designs which may not have been intact or were damaged, yielding in some cases relatively few particles. […] In addition, the expected motion of the rotors may have introduced further heterogeneity, limiting classification efforts. Starting models for all designs were always obtained ab initio, despite clear evidence of the expected design in 2D. […] FSC 0.143 curves were generated by exporting half maps to relion for post-process. […] For density modification in Phenix (59), we used as input the exported half maps from cryosparc with default params at 100 bins and local filtering with a factor of 5. […] Directional FSC calculated using remote 3DF SC processing tool. […]

B1: A113_c2arms9_Ring (D3-C5) (designed binder)
chain: MGDRSEHAKKLKTFLENLRRHLDRLDKHIKQLRDILSENPEDERVKDVIDLSERSVRIVKTVIKIFEDSVRELEKAILWLAEELAKSPDPEDLKRAVELARAVIEANPGSNLSRKAMEIIERAARELSKLPDPEAQRTAIEAASQLATMAAATGNTDQVRRAAELMVEIARLAGTEEAQDLALDALLDVLETALQIATKIIDDANKLLEKLRRSERKDPKVVETYVELLKRHEEAVRLLLEVARVHEELVRFTIIEEKVRSPDCEDIRDAVREAEELLRENPSEMAEELLRRAIEAAVRCPDCEAIREAVRAAEELLRENPSTEAEELLRRAIEAAVRCPDCEAIREAVRAAEELLRENPSEEAKELLRRAIESAKKCPDPEAQREAKRAEEELRKEGSHHHHHH
notes: De novo designed C5 homopentameric ring; also called C5 ring; ring of the D3-C5 rotor
As to B1, the binding result in test [1] is listed as “binds”.

B2: A15.5R82_Ring (C3-C3) (designed binder)
chain: MGVEELLLLARAAHHSGTTVEEAYKLAKKLGISVKELLLLARAAHNSGTTVEEAYKLALKLGISVEELLLLAKAAHYSGTTVEEAYKLALELGISVRELLLLAKAAHFAGRTVREAYALELALGALRLEDRARELIKEAEKKGDPEKLREALEALEEAVRLVEEAIKLRPDMDLAVEIAVRLARMLKRVAELLQELAKKTGDPELLKLALRALEVAVRAVELAIKSNPDNDEAVETAVRLARELKKVAEELQERAKKTGDPELLKLALRALEVAVRAVELAIKSNPDNEEAVETAKRLAEELRKVAELLEERAKETGDPELQELAKRAKEVADRARELAKKSGSHHHHHH
notes: C3 ring of three subunits, each fused to DHR82; also called C3 ring
For the molecule B2, in the test with A15.5R82_Axle (C3-C3), the binding result is given as “binds”.
